Marks after values point to notes of the source that are not given here.

Data set [1] concerns GST-GSK3 fusion protein (Cell Signaling Technology).

As for “PKNbeta kinase domain comprising amino acids 535-889”, in data set [1], the “non-radioactive in vitro kinase assay, phosphorylated substrate detected by Western blot” value was “Only the full length wildtype protein kinase N beta or the kinase domain as defined in example 9 were suitable to phosphorylate the substrate”. Further, in the data set on myelin basic protein, the “Activity (phosphorylation of MPB)” value is “+*” and the “radioactive in vitro kinase assay, 32P incorporation by autoradiography (FIG. 11B)” value is recorded as “the full length wildtype protein kinase N beta as well as the kinase domain show activity”.

Regarding “PKNbeta kinase domain having a mutation at position 588 from lysine to arginine”, the “Activity (phosphorylation of MPB)” value with myelin basic protein was “-*”.

For the substance “PKNbeta kinase domain having a mutation at position 588 from lysine to glutamic acid”, the “Activity (phosphorylation of MPB)” value in the data set on myelin basic protein is listed as “-*”.

Regarding “PKNbeta kinase domain with threonine 718 changed to alanine”, in the data set on myelin basic protein, the “Activity (phosphorylation of MPB)” value is “-*”.

In the case of “PKNbeta kinase domain with threonine 718 changed to aspartic acid”, the “Activity (phosphorylation of MPB)” value in the data set on myelin basic protein is recorded as “-*!”.

Turning to “PKNbeta kinase domain with threonine 718 changed to glutamic acid”, the “Activity (phosphorylation of MPB)” value in the data set with myelin basic protein is given as “-*!”.

Source of the values: patent US20040106569.
